Assay results reported in patent US20240254203A1.

Target: MERS CoV spike protein (MERS CoV) (UniProt K9N5Q8)
Test: cell-based or functional assay

Sequence of MERS CoV spike protein (MERS CoV) (K9N5Q8 18-1353): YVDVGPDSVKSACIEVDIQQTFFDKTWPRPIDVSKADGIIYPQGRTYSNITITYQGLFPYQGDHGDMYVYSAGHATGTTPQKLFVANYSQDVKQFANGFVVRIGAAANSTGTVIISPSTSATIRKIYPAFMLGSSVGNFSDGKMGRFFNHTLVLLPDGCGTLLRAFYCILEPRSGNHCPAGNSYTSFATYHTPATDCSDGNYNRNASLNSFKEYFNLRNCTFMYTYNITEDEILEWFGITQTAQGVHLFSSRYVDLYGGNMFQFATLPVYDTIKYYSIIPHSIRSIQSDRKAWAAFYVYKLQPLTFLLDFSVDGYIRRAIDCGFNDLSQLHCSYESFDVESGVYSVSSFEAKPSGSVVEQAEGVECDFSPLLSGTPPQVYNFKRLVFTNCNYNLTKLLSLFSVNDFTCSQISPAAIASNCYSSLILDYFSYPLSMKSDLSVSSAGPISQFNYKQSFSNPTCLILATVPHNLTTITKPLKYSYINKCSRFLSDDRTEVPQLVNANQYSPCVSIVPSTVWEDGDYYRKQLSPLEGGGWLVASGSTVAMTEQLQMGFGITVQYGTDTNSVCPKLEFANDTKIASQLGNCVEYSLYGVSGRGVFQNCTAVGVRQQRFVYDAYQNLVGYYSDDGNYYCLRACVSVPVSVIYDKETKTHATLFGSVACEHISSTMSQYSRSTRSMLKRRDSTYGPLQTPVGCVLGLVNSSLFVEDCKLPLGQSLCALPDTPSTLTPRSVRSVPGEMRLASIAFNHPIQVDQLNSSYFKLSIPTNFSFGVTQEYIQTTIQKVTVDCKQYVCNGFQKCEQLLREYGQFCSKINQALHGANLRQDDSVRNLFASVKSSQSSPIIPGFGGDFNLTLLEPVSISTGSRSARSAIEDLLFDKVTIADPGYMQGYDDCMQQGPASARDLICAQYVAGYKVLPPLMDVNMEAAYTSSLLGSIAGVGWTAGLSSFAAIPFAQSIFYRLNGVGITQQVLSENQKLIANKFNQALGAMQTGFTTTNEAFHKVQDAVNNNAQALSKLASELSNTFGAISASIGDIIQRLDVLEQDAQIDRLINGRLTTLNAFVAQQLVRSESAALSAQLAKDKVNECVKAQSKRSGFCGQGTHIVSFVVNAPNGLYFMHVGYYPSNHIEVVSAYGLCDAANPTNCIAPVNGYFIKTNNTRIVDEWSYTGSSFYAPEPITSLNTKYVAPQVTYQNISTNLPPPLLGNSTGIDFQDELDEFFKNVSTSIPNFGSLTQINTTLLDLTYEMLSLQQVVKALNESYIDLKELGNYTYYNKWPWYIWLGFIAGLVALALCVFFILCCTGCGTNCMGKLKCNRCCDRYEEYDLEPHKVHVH

Binder	Antivirus vs Pseudovirus IC50 (pM)	IC50, neutralization of MERS CoV by the soluble antibody [nM]
αNTD:7D10/VM (scFv) scFv: DIVMTQSPASLTVSLGQRATISCRASKSVSASGYNYLHWYQQRPGQPPKLLIYLAFNLESGVPARFNGSGSGTDFTLNIHPVEEEDAATYYCQHSRDLPFTFGSGTKLEIKGGGSGGGSGGGSEVQLVESGAEVVKPGASVKMSCKASGYPFTSYNIHWIKQTPGQGLEWIGAIYPGNGDTSYTQKFKVKATLTSDKSSSTAYMQLSSLTSEDSAVYFCARYGNYPSYAMDYWGQGTSVTVSSSRGMLDSDLHLSSKAQVFEHPHIQDAASQLPDDESLFFGDTGLSKNPIELVEGWFSSWKSSIASFFFIIGLIIGLFLVLRVGIHLCIKLKHTKKRQIYTDIEMNRLGK	12	–
soluble 7D10 (antibody, V domains shown) VH: EVQLVESGAEVVKPGASVKMSCKASGYPFTSYNIHWIKQTPGQGLEWIGAIYPGNGDTSYTQKFKVKATLTSDKSSSTAYMQLSSLTSEDSAVYFCARYGNYPSYAMDYWGQGTSVTVSS VL: DIVMTQSPASLTVSLGQRATISCRASKSVSASGYNYLHWYQQRPGQPPKLLIYLAFNLESGVPARFNGSGSGTDFTLNIHPVEEEDAATYYCQHSRDLPFTFGSGTKLEIK	–	1.2
